Reference: patent publication US20220088145A1

Tests used:
[1] = target: HLA-DR15 dimer (DR1501) (human); test: peptide binding to HLA-DR dimer; EC50 ratio (<20 = high affinity, 20-100 = moderate affinity); method not described
[2] = target: HLA-DR7 dimer (DR0701) (human); test: as above

E. rectale Fla1 p445-464 (peptide)
EC50 Ratio [1]: 4.5

R. Intest. Fla1 p408-427 (peptide)
EC50 Ratio [2]: 5 | EC50 Ratio [1]: 4.1
